Experimental data published in US20060263802A1 (CRUCELL HOLLAND B V, published 2006).

Assays:
Test in all cases: PEPSCAN ELISA, looped 15-mer, 10 ug/ml
looped peptide […] [1] = target: looped peptide […] (rabies virus strain ERA)
looped peptide […] [2] = target: looped peptide […] (rabies virus strain ERA); remark: listed apart in the source
looped peptide […] [3] = target: looped peptide […] (rabies virus strain ERA); remark: listed apart in the source
looped peptide […] [4] = target: looped peptide […] (rabies virus strain ERA); remark: listed apart in the source
looped peptide […] [5] = target: looped peptide […] (rabies virus strain ERA); remark: listed apart in the source
looped peptide […] [6] = target: looped peptide […] (rabies virus strain ERA); remark: listed apart in the source
[7] = target: looped peptide … (rabies virus strain ERA)
[8] = target: looped peptide … (rabies virus strain ERA); remark: listed apart in the source
[9] = target: looped peptide … (rabies virus strain ERA); remark: listed apart in the source
[10] = target: looped peptide … (rabies virus strain ERA); remark: listed apart in the source
[11] = target: looped peptide … (rabies virus strain ERA); remark: listed apart in the source
[12] = target: looped peptide … (rabies virus strain ERA); remark: listed apart in the source
[13] = target: looped peptide … (rabies virus strain ERA); remark: listed apart in the source

B1: human monoclonal antibody CRJA (antibody, V domains shown)
VH: EVQLLESGGGLVQPGGSLRLSCAASGFTFSNYAMSWVRQAPGKGLEWVSAISASGHSTYLADSVKGRFTISRDNSKNTLYLQMNSLRAEDTAVYYCAKDREVTMIVVLNGGFDYWGQGTRVTVSS
VL: EIVLTQSPATLSLSPGERATLACRASQTASRYLAWYQQKPGQAPRLLIYDTSNRATGIPARFSGSGSGTDFTLSISSLEPEDFAVYYCQQRFNWPWTFGQGTKVEFK
Looped peptide […] [1]
  OD value: 320
Looped peptide […] [2]
  OD value: 468
Looped peptide […] [3]
  OD value: 123
Looped peptide […] [4]
  OD value: 93
Looped peptide […] [5]
  OD value: 152
Looped peptide […] [6]
  OD value: 164
[7]
  OD value: 87
[8]
  OD value: 50
[9]
  OD value: 54
[10]
  OD value: 71
[11]
  OD value: 79
[12]
  OD value: 90
[13]
  OD value: 82
